Sequences and labels used below:
B1: antibody 1963 (antibody, V domains shown)
VH: QVQLVQSGAEVKKPGASVKVSCKASGYTFTSNYIHWLRQAPGQGLEWMGIIKPSGTSTISAQKFRGRVAMTRDTSTSTVYMELSSLRFEDTAIYYCARDAKRALETWGQGTMVTVSS
VL: QSVLTQPPSVSAAPGQKVTISCSGSSSNIGNNYVSWYQQLPGTAPKLLIYDNNKRPSGIPDRFSGSRSGTSATLGITGLQTGDEADYYCGTWDSSLSAWVFGGGTKLTVL
B2: antibody 1969 (antibody, V domains shown)
VH: QVQLVQSGAEVKKPGASVKVSCKASGYSFTDYYIHWVRQAPGQGLEWMGIIKPSAGATVYAQKFRGRVSMTSDTSTGTVYMELSGLKSEDTAVYYCARDYNRSFDFWGQGTLVTVSS
VL: QSVLTQPPSVSAAPGQTVTISCAGSTSNIGKNYVSWYQHLPGTAPKLLIYDNIKRPSGIPDRFSGSTSGTSATLGITELQTGDEADYYCGTWDSSLSAYVFGTGTKVTVL
B3: antibody 1856 (antibody, V domains shown)
VH: EVRLVESGGGLVKPGGSLRLSCAASGFSFSLYTMNWVRQAPGKGLEWVSYISSSSSYRYYADSVKGRFSVSRDNAKNTLYLEMNGLRAEDTAVYYCARDGYCPRGVCTYYGMDVWGQGTTVTVSA
VL: EIVMTQSPATLSVSPGERATLSCRASQTIGIRLAWYQQKPGQAPRLLIYDATIRATGIPARFSGSGSGTDFTLTISGLQSEDFAVYYCQRYNNWPPVYTFGQGTKLEMK
B4: antibody 1867 (antibody, V domains shown)
VH: B3 VH with R3Q, L31T, K65R, T78S, E82Q, A88V, R104N, A125S
VL: not shown
B5: antibody 1888 (antibody, V domains shown)
VH: B3 VH with R3Q, S28T, L31S, T33S, R58K, T78S, E82Q, M83L, A88V, R104K
VL: EIVMTQSPATLSVSPGERATLSCRASQSVRSRLAWFQQKPGQPPRLLIYDASIRATGIPDRFSGSGSGTEFTLIISGLQSEDFAVYYCQQYDNWPPAYTFGQGTKLEIK
B6: antibody 2025 (antibody, V domains shown)
VH: QVQLVQSGAEVKKPGASVKVSCKVSGYTLIELSMHWVRQAPGKGLEWMGGFDPEDVETIYAQKFQGRVTMTEDTSTDTAYMELSSLRSEDTAVYYCATAYAVQWRGMIGYWGQGTLVTVSS
VL: QSALTQPASVSGSPGQSITISCTGTSSDVGSYNLVSWYQQHPGKAPKLMIYEVSKRPSGVSNRFSGSKSGNTASLTISGLQAEDEADYYCSSYAGSSTFSYVFGTGTKVTVL
B7: antibody 937 (antibody, V domains shown)
VH: EVQLVESGGGLVQPGRSLRLSCAASGFTFDDYAMHWVRQAPGKGLEWVSGISWNSGSIGYADSVKGRFTISRDNAKNSLYLQMNSLKPEDTALYYCAKSTTSCYNGSQCPTKRPKPLESWGQGTLVIVSA
VL: DIQMTQSPSTLSAFVGDRVTITCRASQSINNWLAWYQQKPGEVPKLLIYKASSLENGVPSRFSGSGFGTEFTLTISSLQPDDFAIYYCQQYYSHSHTFGQGTKLEIK
B8: antibody 941 (antibody, V domains shown)
VH: QVQLVQSGAEVKKPGSSVKVSCKASGGTFSNSAINWVRQAPGQGLEWMGGIIPLFGAADYAQKFQARVTITADKSTTTSYMELSSLRSEDTAVYYCARDTLEHDDVWGNFRLSLPLSFWGQGTLVTVSS
VL: not shown
B9: antibody 2075 (antibody, V domains shown)
VH: QVQLVQSGAEVKKPGSSVKVSCTASGGTFSIYAFSWVRQAPGQGLEWMGGIIPISGTAGYAQKFQGRVTITADESTSTAYMELSSLRSEDTAIYYCARKYRYCSGSRCYTYFDYWGQGTLVTVSS
VL: DIQMTQSPSSLSASVGDRVTITCRASQSISSFLNWYQQKPGKAPKLLIYAASSLQSGVPSRFSGSGSGTDFTLTISSLQPEDSATYYCQQSYSTITFGQGTRLEIK
B10: antibody 2564 (antibody, V domains shown)
VH: QVQLVQSGAEVKKPGSSVRVSCKASGGTFISYTFNWVRQAPGQGLEWMGRIIPIFGIVNYAQKFQGRVTIAADKSTSTAYMELSSLRSEDTAMYYCATATVDYDSGEEQSSFDPWGQGTLVTVSS
VL: EIVLTQSPGTLSLSPGERATLSCRASQSVSSSYLAWYQQKAGQTPRLLIYAASSRATGVPDRFSGSGSGTDFTLTISRLEAEDFAVYYCQQSWTFGQGTKVEIK
B11: antibody 4042 (antibody, V domains shown)
VH: QITLKESGPTLVKPTQTLTLTCTFSGFSLSSGGVGVGWIRQPPGKALEWLALIYWDDDKRYRPSLKSRLTITRDTSTNQVVLTMTNMDPVDTATYFCARHQIATVFDHWGQGTLVTVSS
VL: QSALTQPASVSGSPGQSITISCTGTSSDVGGYNYVSWYQQHPGKAPKLMIYEVSNRPSGVSSRFSGSKSGNTASLTISGLQAEDEADYYCSSYTRSSPLVAFGGGTKVTVL
B12: antibody 3091 (antibody, V domains shown)
VH: QMQLVQSGPEVKKPGTSVKVSCKASGFTFSSSAVQWVRQARGQGLEWIGWIVVGSGNANYAQKLQERVSITRDMSTSTAYMELSSLRPEDTAVYYCAAPHCSRTICHDGFDMWGQGTMVTVSS
VL: EIVLTQSPGTLSLSPGERATLSCRASQSVRSSYLAWYQQKPGQAPRLLMFVASSRATGIPDRFSGSGSGTDFTLTISRLEPEDFAVYYCQQYDTSPWTFGQGTKVEIK
B13: antibody 2794 (antibody, V domains shown)
VH: QVQLVQSGAEVKKPGSSLKVSCKASGGTFNNFAISWVRQAPGQGPEWMGRINPILSAAKYAQKFQGRLTITADKSTTTAYMELSSLRSEDTAVYYCAPTGTGESWWFDPWGQGTLVTVSS
VL: QSVLTQPPSASGTPGQRVTISCSGSSSNIGTNYVYWYQQLPGTAPKVLIYGNNQRPSGVPDRFSGSKSGSSASLAISGLRSEDEADYYCAAWDDSLSGPVFGGGTKLTVL
B14: antibody 2050 (antibody, V domains shown)
VH: QVQLVQSGAEVKKPGASVKVPCKVSGYTFTDHFIHWVRQAPGQGLEWMGWISPNSGGRNYTQKFQGRVTLTRDTAITTVHMDLSSLTPDDTAVYYCARDVRWAQLQGGFDLWGQGTMVTVSS
VL: QSALTQPASVSGSPGQSITISCTGTSSDVGSYNLVSWYQQHPGKAPKLMIYEVSKRPSGVSNRFSGSKSGNTASLTISGLQADDEADYYCCSYAGDNNFLFGGGTSLTVL
B15: antibody 3995 (antibody, V domains shown)
VH: EVQLVQSGAEVKKPGSSVKVSCKASGGTFSMHTIRWVRQAPGQGLEWMGRIIPMLGIVNYAQKFQGRVTISADKSTSTAYMELSSLTSEDTAMYYCAKGSHDVFDIWGQGTMVTVSS
VL: not shown

What is called EC50 is the midpoint of the concentration-response curve. The low end stands for a more potent agent, the high end for a less potent agent.

Where a chain is given by its changes, count along the chain named.

The first experiment has as its target T1, SARS-CoV-2 nucleocapsid (N) protein (SARS-CoV-2, UniProt P0DTC9 1-419). Put plainly: ELISA screening, antibody concentration not given. Background: An ELISA detects its analyte on a solid surface through an enzyme-linked reagent.
For the molecule B1, the binding result is reported as “no binding (tested: not printed)”.
As for B2, the binding result is “no binding (tested: not printed)”.
The same measure, in the same setting: with B3 the entry was “no binding (tested: not printed)”; with B4, “no binding (tested: not printed)”; with B5, “no binding (tested: not printed)”.

A further experiment concerns the target S1 subunit of the SARS-CoV-2 spike protein, WA01/2020 strain (SARS-CoV-2, WA01/2020 strain, UniProt P0DTC2 16-685). Put plainly: ELISA screening, antibody concentration not given.
On to B1, for which the binding result is recorded as “no binding (tested: not printed)”.
With B2, the binding result is listed as “no binding (tested: not printed)”.
Consider B3, for which the binding result was “no binding (tested: not printed)”.
On the same count and under the same terms, with B4 the entry was “no binding (tested: not printed)”; with B5, “no binding (tested: not printed)”.

Another experiment deals with T1, SARS-CoV-2 nucleocapsid (N) protein. Put plainly: ELISA, antibody at 0.1 ug/mL.
B6: the binding result is reported as “no binding (tested: 0.1 ug/mL)”.
Still for that read-out and setting: for B7 the value was “no binding (tested: 0.1 ug/mL)”.

The target of another experiment is T2, S2 subunit of the SARS-CoV-2 spike protein, WA01/2020 strain (SARS-CoV-2, WA01/2020 strain, UniProt P0DTC2 686-1213). Put plainly: ELISA, antibody at 0.1 ug/mL.
As to B6, the binding result is listed as “no binding (tested: 0.1 ug/mL)”.
Still for that read-out and setting: with B7 the entry was “no binding (tested: 0.1 ug/mL)”.

The target in another experiment is T2, S2 subunit of the SARS-CoV-2 spike …. Put plainly: dose-response ELISA; antigen taken from the column 'Structural data'.
With B1, a half-maximal effect (EC50) was put at 0.041 nM.
Same read-out and setting: for B2 the value was 0.035 nM; for B4, 1.09 nM.

The target of a further experiment is SARS-CoV-2 spike protein, WA1/2020, borne on lentiviral pseudovirus (SARS-CoV-2, WA01/2020 strain, UniProt P0DTC2 14-1273). As to the kind of experiment: cell-based or functional assay.
As for B8, the “Pseudo Neut, WA1/2020 IC50 (pM)” value came to 610 pM.
Same read-out and setting: with B9 the figure was 783 pM; with B10, 160 pM; with B11, 209 pM.
Still for that read-out and setting: with B12 the figure was 59 pM; with B13, 232 pM; with B14, 427 pM.
With B15, the “Pseudo Neut, WA1/2020 IC50 (pM)” value was found to be 3120 pM.
Take B5: the “Pseudo Neut, WA1/2020 IC50 (pM)” value is greater than 111 pM.

A further experiment deals with SARS-CoV (2003) spike protein borne on lentiviral pseudovirus (SARS-CoV (2003), UniProt P59594 14-1255). Put plainly: cell-based or functional assay.
Regarding B1, the “Pseudo Neut, SARS-CoV 2003 IC50” value worked out at 69 nM.
Still for that read-out and setting: for B2 the value was 97 nM; for B3, greater than 111 nM.
The same measure, in the same setting: with B4 the figure was 135 nM; with B5, greater than 111 nM.

For another experiment, the target named is T1, SARS-CoV-2 nucleocapsid (N) protein. As to the kind of experiment: ELISA, antibody at 0.1 ug/mL. This is another data set of the same source.
Turning to B8, the binding result is given as “no binding (tested: 0.1 ug/mL)”.
As for B9, the binding result was “no binding (tested: 0.1 ug/mL)”.
Same read-out and setting: with B10 the entry was “no binding (tested: 0.1 ug/mL)”; with B11, “no binding (tested: 0.1 ug/mL)”.
Same read-out and setting: for B12 the value was “no binding (tested: 0.1 ug/mL)”; for B13, “no binding (tested: 0.1 ug/mL)”; for B14, “no binding (tested: 0.1 ug/mL)”.
Still for that read-out and setting: with B15 the entry was “no binding (tested: 0.1 ug/mL)”.

The next experiment addresses T2, S2 subunit of the SARS-CoV-2 spike …. As to the kind of experiment: ELISA, antibody at 0.1 ug/mL. The source holds these as a separate data set.
Turning to B8, the binding result is listed as “no binding (tested: 0.1 ug/mL)”.
The same measure, in the same setting: for B9 the value was “no binding (tested: 0.1 ug/mL)”.
On the same count and under the same terms, with B10 the entry was “no binding (tested: 0.1 ug/mL)”.
Same read-out and setting: with B11 the entry was “no binding (tested: 0.1 ug/mL)”; with B12, “no binding (tested: 0.1 ug/mL)”.
For the molecule B13, the binding result was “no binding (tested: 0.1 ug/mL)”.
Same read-out and setting: for B14 the value was “no binding (tested: 0.1 ug/mL)”; for B15, “no binding (tested: 0.1 ug/mL)”.

These data come from patent publication US20230382979A1 (ADAPTIVE BIOTECHNOLOGIES, published 2023).
